The target of assay [1] is T1, fully glycosylated, monobiotinylated extracellular domain of human CD98hc produced in HEK 293E cells (human, UniProt P08195 111-529, N-linked glycosylation at Asn264, 280, 323 and 405 (UniProt P08195-2); single biotin on the N-terminal BAP).
T1 construct: also called hCD98hcEDg; CD98hcEDg; not shown: N-terminal His6 tag and biotin acceptor peptide (BAP) from pDSG-BM-His6-BAP-hCD98hcEDg
T1 sequence: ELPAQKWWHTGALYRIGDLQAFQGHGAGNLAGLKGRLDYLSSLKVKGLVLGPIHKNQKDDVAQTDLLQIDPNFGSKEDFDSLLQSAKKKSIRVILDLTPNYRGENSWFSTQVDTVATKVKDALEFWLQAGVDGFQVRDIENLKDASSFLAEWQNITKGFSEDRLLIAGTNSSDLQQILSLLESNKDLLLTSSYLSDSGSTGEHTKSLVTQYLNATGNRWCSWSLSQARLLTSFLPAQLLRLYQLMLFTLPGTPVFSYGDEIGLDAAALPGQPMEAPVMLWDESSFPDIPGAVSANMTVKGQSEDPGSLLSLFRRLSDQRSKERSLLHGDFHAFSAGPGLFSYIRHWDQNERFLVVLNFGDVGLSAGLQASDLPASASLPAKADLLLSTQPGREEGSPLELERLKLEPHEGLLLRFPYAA
In words: SPR, comparison of glycosylated and unglycosylated ectodomain. On the procedure: (§1) Real time surface plasmon resonance (SPR) spectroscopy was performed on a BIAcore 2000 system (BIAcore, Uppsala, Sweden) at 25° C. using HBS-T (20 mM Hepes/NaOH pH 7.5, 150 mM NaCl, 0.005% v/v Tween20) as running buffer. The purified biotinylated m/hCD98hcED (3 μg/ml protein solution in HBS-T produced in HEK cells or E. coli) was immobilized (ARU-225) via streptavidin on a CAP sensorchip of the Biotin CAPture kit (GE Healthcare). SPR single cycle kinetic experiments were performed using five consecutive injections of a 1:2 dilution series of the purified lipocalin variant at a flow rate of 25 μl/min, with 288 s contact time and 3500 s dissociation time after the fifth injection. For multi cycle kinetic experiments, eight samples from a consecutive 1:2 dilution series of the purified lipocalin variant were measured. Rate constants of association and dissociation were calculated from reference-corrected sensorgrams by fitting to a global 1:1 Langmuir binding model using BIAevaluation software (BIAcore). The equilibrium dissociation constants (KD value) were calculated as the quotient koff/kₒₙ. To test competitive binding of the lipocalin variants P3D11, P3A12 and P1E4 to glycosylated hCD98hcED, 100 nM of P3D11 was first injected and followed by a subsequent injection of either 100 nM P3A12 or 100 nM P1E4. HBS-T injections served as negative control.
Background: In SPR one partner is held on a chip, and binding of the other changes the refractive index at the surface.

Assay [2] concerns the target T1, fully glycosylated, monobiotinylated …. The assay is described as follows: SPR, biotinylated hCD98hcEDg captured on CAP chip. As for the experimental part: as §1
The target in assay [3] is T2, unglycosylated, monobiotinylated extracellular domain of human CD98hc produced in E. coli (human, UniProt P08195 111-529, single biotin on the N-terminal biotin acceptor peptide (BAP)).
T2 construct: also called hCD98hcED; CD98hcED; not shown: N-terminal biotin acceptor peptide (BAP) from pASK-IBA5(+)-BAP-hCD98hcED
T2 sequence: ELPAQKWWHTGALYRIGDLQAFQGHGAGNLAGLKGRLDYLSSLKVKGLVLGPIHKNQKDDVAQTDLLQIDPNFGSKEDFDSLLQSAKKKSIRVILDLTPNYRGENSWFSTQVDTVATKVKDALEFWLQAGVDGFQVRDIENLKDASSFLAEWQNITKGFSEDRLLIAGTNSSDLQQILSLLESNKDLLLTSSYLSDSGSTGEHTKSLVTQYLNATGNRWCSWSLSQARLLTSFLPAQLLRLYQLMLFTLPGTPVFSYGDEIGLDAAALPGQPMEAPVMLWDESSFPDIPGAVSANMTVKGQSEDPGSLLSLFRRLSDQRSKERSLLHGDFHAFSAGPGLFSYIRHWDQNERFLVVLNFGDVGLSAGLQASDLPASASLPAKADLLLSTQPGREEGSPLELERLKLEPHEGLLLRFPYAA
The assay is described as follows: SPR, complex dissociation half-life. As for the experimental part: as §1

Assay [4] has as its target T1, fully glycosylated, monobiotinylated …. The assay is described as follows: SPR, complex dissociation half-life. As for the experimental part:
as §1

For assay [5] the target is unchanged.
Test: not given

Assay [6] concerns the target T2, unglycosylated, monobiotinylated …. The assay is described as follows: SPR (BIAcore 2000), biotinylated hCD98hcED captured on CAP chip, multiple cycle kinetics. As for the experimental part:
as §1

The target is the same in assay [7]. The assay is described as follows: SPR (BIAcore 2000), biotinylated hCD98hcED captured on CAP chip, single cycle kinetics. As for the experimental part: as §1
The target is the same in assay [8]. In words: SPR. As for the experimental part: as §1
Assay [9] addresses T1, fully glycosylated, monobiotinylated …. In words: flow cytometry, soluble hCD98hcEDg at 10-fold molar excess as competitor of cell binding. On the procedure:
Cells growing in suspension (Ramos, Raji and SU-DHL-4) were directly washed with PBS (w/o Ca²⁺ and Mg²⁺). For each measurement, 250,000 viable cells were resuspended in 250 μl FACS buffer (PBS+10% (v/v) FBS) containing 1 μM D11vs-PAS200-Cy5.5 (cf. Supplementary information) and incubated for 1 h at 4° C. Competition experiments were performed by adding a 10-fold molar concentration of either unlabeled D11vs-PAS200 or the soluble glycosylated hCD98hcED. After incubation, cells were washed three times in PBS and finally resuspended in 250 μl FACS buffer. Flow cytofluorometric experiments were performed on a FACSAria Ilu instrument using an excitation wavelength of 650 nm and an emission band-path filter of 780/60 nm.
As expected, no fluorescence staining for any of the tested cell lines was detected when using the Cy5.5-labeled PASylated wtLcn2.

Assay [10] concerns the target T2, unglycosylated, monobiotinylated ….
Test: not given

B1: lipocalin variant P1E4 (designed binder)
chain: QDSTSDLIPAPPLSKVPLQQNFQDNQFHGKWYVVGIAGNSMLREDKDPFKMTATIYELKEDKSYNVTRVRFDDKKCLYRILTFVPGSQPGEFTLGNIKSRPGWTSWLVRVVSTNYNQHAMVFFKRVHQNRETFWITLYGRTKELTSELKENFIRFSKSLGLPENHIVFPVPIDQCIDG
notes: produced soluble in E. coli JM83, monomeric; also called Anticalin P1E4; not shown: C-terminal His6-tag (plasmid pNGAL118)
As to B1, the “fold decrease of binding by N-glycosylation (hCD98hcEDg against hCD98hcED)” value in assay [1] is about 100 fold. For the same molecule, in assay [2], the Kd was determined as 162 nM, the off-rate (koff) came out at 0.09 s⁻¹ and the kon was 560000 M⁻¹ s⁻¹. Besides, the “T½” value in assay [3] stood at 0.0183 h. For the same molecule, the “T1/2” value in assay [4] was under 0.0167 h. For the same molecule, the dissociation constant Kd in assay [5] is at most 200 nM. Besides, in assay [6], binding was characterised by a dissociation constant (Kd) of 4.5 nM, the koff is 0.011 s⁻¹ and the kon is 2.5e+06 M⁻¹ s⁻¹.

B2: lipocalin variant D11vs (designed binder)
chain: QDSTSDLIPAPPLSKVPLQQNFQDNQFHGKWYVVGRAGNTGLREDKDPGKMFATIYELKEDKSYNVTYVWSGQKKCMYSIVTFVPGSQPGEFTLGNIKSAPGRTSWLVRVVSTNYNQHAMVFFKSVTQNREGFAITLYGRTKELTSELKENFIRFSKSLGLPENHIVFPVPIDQCIDG
notes: P3D11 variant with Phe71Ser and Gly81Val; also called Anticalin D11vs; not shown: C-terminal His6-tag (plasmid pNGAL118) as for the other soluble lipocalin variants
B2: in [2], the equilibrium dissociation constant (Kd) stood at 0.05 nM, the off-rate (koff) was determined as 2.2e-05 s⁻¹ and the kon worked out at 460000 M⁻¹ s⁻¹. In assay [7], this molecule came in with a dissociation constant Kd of 0.05 nM, an off-rate constant (koff) of 2.6e-05 s⁻¹ and a kon of 450000 M⁻¹ s⁻¹. Also, the “T½” value in [3] stood at 7.37 h. For the same molecule, the “T1/2” value in assay [4] is 8.72 h. Also, the “fold increase of affinity against P3D11” value in assay [8] is about 3 fold.

B3: D11vs-PAS200-Cy5.5 (designed binder)
chain: QDSTSDLIPAPPLSKVPLQQNFQDNQFHGKWYVVGRAGNTGLREDKDPGKMFATIYELKEDKSYNVTYVWSGQKKCMYSIVTFVPGSQPGEFTLGNIKSAPGRTSWLVRVVSTNYNQHAMVFFKSVTQNREGFAITLYGRTKELTSELKENFIRFSKSLGLPENHIVFPVPIDQCIDG
modifications: Sulfo-Cyanine5.5 coupled by maleimide chemistry to the engineered C-terminal Cys
notes: also called Cy5.5 labeled PASylated D11vs; Cy5.5-labeled D11vs-PAS200; not shown: C-terminal PAS200 polypeptide (200 Pro, Ala and Ser residues) with an engineered Cys at its end
Regarding B3, the binding result in assay [9] was “binds”.

B4: SEQ ID NO 4 (designed binder)
chain: QDSTSDLIPAPPLSKVPLQQNFQDNQFHGKWYVVGRAGNTGLREDKDPGKMFATIYELKEDKSYNVTYVWSGQKKCMYSIVTFVPGSQPGEFTLGNIKSAPGRTSWLVRVVSTNYNQHALVFFKSVTQNREGFAITLYGRTKELTSELKENFIRFSKSLGLPENHIVFPVPIDQCIDG
As to B4, the Kd in assay [10] was at most 5 nM.

What is called Kd is the free concentration of one partner at which half of the binding sites on the other are occupied at equilibrium, for simple one-to-one binding. As usually defined, the koff is a measure of how fast the partners let go of each other. A lower koff goes with slow dissociation. For orientation: kon means the rate constant with which the complex forms. The low end stands for slow association, the high end for fast association.

These data come from patent US20220153790A1 (TECHNISCHE UNIVERSIT T M NCHEN, published 2022).
